Assay results taken from paper PMC7485568.

Target: recombinant human C2
Test: ECL_MSD
Conditions: pH 6.0; 0.2 mol/L citric acid, 0.2 mol/L sodium citrate; 150 mmol/L NaCl

ARGX-117
EC50: 32.2 µg/mL
